In patent US20230212319A1, “NOVEL ANTIGEN BINDING DOMAINS AND SYNTHETIC ANTIGEN RECEPTORS INCORPORATING THE SAME” (University of Southern California, priority 2020, published 2023):
“Also recorded” adds a separate entry of the source.

B1: 21887 (protein)
chain: MALPVTALLLPLALLLHAARPDIQMTQSPSSLSASVGDRVTITCKASQDVGTAVDWYQQKPGKAPKLLIYWASTRHTGVPSRFSGSGSGTDFTLTISSLQPEDFATYYCQQYNSYPLTFGQGTKVEIKRLEPSEAEISHTQKATLVCLATGFYPDHVELSWWVNGKEVHSGVCTDPQPLKEQPALNDSRYCLSSRLRVSATFWQNPRNHFRCQVQFYGLSENDEWTQDRAKPVTQIVSAEAWGRADCGFTSESYQQGVLSATILYEILLGKATLYAVLVSALVLMAMVKRKDSRGRAKRSGSGATNFSLLKQAGDVEENPGPTSMDWIWRILFLVGAATGAHSFEVQLVESGGGLVQPGGSLRLSCAASGYTFTEYTIHWVRQAPGKGLEWVANINPNNGGTTYNQKFEDRFTISRDNSKNTLYLQMNSLRAEDTAVYYCARGWNFDYWGQGTLVTVSSTRDKSVCLFTDFDSQTNVSQSKDSDVYITDKCVLDMRSMDFKSNSAVAWSNKSDFACANAFNNSIIPEDTFFPSPESSCDVKLVEKSFETDTNLNFQNLSVIGFRILLLKVAGFNLLMTLRLWSSRAKRSGSGVKQTLNFDLLKLAGDVESNPGPSRGHMTEYKPTVRLATRDDVPRAVRTLAAAFADYPATRHTVDPDRHIERVTELQELFLTRVGLDIGKVWVADDGAAVAVWTTPESVEAGAVFAEIGPRMAELSGSRLAAQQQMEGLLAPHRPKEPAWFLATVGVSPDHQGKGLGSAVVLPGVEAAERAGVPAFLETSAPRNLPFYERLGFTVTADVEVPEGPRTWCMTRKPGA
B2: 21884 (protein)
chain: MALPVTALLLPLALLLHAARPDIQMTQSPSSLSASVGDRVTITCKASQDVGTAVDWYQQKPGKAPKLLIYWASTRHTGVPSRFSGSGSGTDFTLTISSLQPEDFATYYCQQYNSYPLTFGQGTKVEIKRLETIFLPSIAETKLQKAGTYLCLLEKFFPDVIKIHWQEKKSNTILGSQEGNTMKTNDTYMKFSWLTVPEKSLDKEHRCIVRHENNKNGVDQEIIFPPIKTDVITMDPKDNCSKDANDTLLLQLTNTSAYYMYLLLLLKSVVYFAIITCCLLRRTAFCCNGEKSRAKRSGSGATNFSLLKQAGDVEENPGPTSMDWIWRILFLVGAATGAHSFEVQLVESGGGLVQPGGSLRLSCAASGYTFTEYTIHWVRQAPGKGLEWVANINPNNGGTTYNQKFEDRFTISRDNSKNTLYLQMNSLRAEDTAVYYCARGWNFDYWGQGTLVTVSSTRPHTKPSVFVMKNGTNVACLVKEFYPKDIRINLVSSKKITEFDPAIVISPSGKYNAVKLGKYEDSNSVTCSVQHDNKTVHSTDFEVKTDSTDHVKPKETENTKQPSKSCHKPKAIVHTEKVNMMSLTVLGLRMLFAKTVAVNFLLTAKLFFLRAKRSGSGVKQTLNFDLLKLAGDVESNPGPSRGHMTEYKPTVRLATRDDVPRAVRTLAAAFADYPATRHTVDPDRHIERVTELQELFLTRVGLDIGKVWVADDGAAVAVWTTPESVEAGAVFAEIGPRMAELSGSRLAAQQQMEGLLAPHRPKEPAWFLATVGVSPDHQGKGLGSAVVLPGVEAAERAGVPAFLETSAPRNLPFYERLGFTVTADVEVPEGPRTWCMTRKPGA
B3: 21886 (protein)
chain: MALPVTALLLPLALLLHAARPDIQMTQSPSSLSASVGDRVTITCKASQDVGTAVDWYQQKPGKAPKLLIYWASTRHTGVPSRFSGSGSGTDFTLTISSLQPEDFATYYCQQYNSYPLTFGQGTKVEIKRLEAEISHTQKATLVCLATGFYPDHVELSWWVNGKEVHSGVCTDPQPLKEQPALNDSRYCLSSRLRVSATFWQNPRNHFRCQVQFYGLSENDEWTQDRAKPVTQIVSAEAWGRADCGFTSESYQQGVLSATILYEILLGKATLYAVLVSALVLMAMVKRKDSRGRAKRSGSGATNFSLLKQAGDVEENPGPTSMDWIWRILFLVGAATGAHSFEVQLVESGGGLVQPGGSLRLSCAASGYTFTEYTIHWVRQAPGKGLEWVANINPNNGGTTYNQKFEDRFTISRDNSKNTLYLQMNSLRAEDTAVYYCARGWNFDYWGQGTLVTVSSTRDKSVCLFTDFDSQTNVSQSKDSDVYITDKCVLDMRSMDFKSNSAVAWSNKSDFACANAFNNSIIPEDTFFPSPESSCDVKLVEKSFETDTNLNFQNLSVIGFRILLLKVAGFNLLMTLRLWSSRAKRSGSGVKQTLNFDLLKLAGDVESNPGPSRGHMTEYKPTVRLATRDDVPRAVRTLAAAFADYPATRHTVDPDRHIERVTELQELFLTRVGLDIGKVWVADDGAAVAVWTTPESVEAGAVFAEIGPRMAELSGSRLAAQQQMEGLLAPHRPKEPAWFLATVGVSPDHQGKGLGSAVVLPGVEAAERAGVPAFLETSAPRNLPFYERLGFTVTADVEVPEGPRTWCMTRKPGA
B4: 21892 (protein)
chain: MALPVTALLLPLALLLHAARPDIQMTQSPSSLSASVGDRVTITCKASQDVGTAVDWYQQKPGKAPKLLIYWASTRHTGVPSRFSGSGSGTDFTLTISSLQPEDFATYYCQQYNSYPLTFGQGTKVEIKRLEDLKNVFPPEVAVFEPSEAEISHTQKATLVCLATGFYPDHVELSWWVNGKEVHSGVCTDPQPLKEQPALNDSRYCLSSRLRVSATFWQNPRNHFRCQVQFYGLSENDEWTQDRAKPVTQIVSAEAWGRADCGFTSESYQQGVLSATILYEILLGKATLYAVLVSALVLMAMVKRKDSRGRAKRSGSGATNFSLLKQAGDVEENPGPTSMDWIWRILFLVGAATGAHSFEVQLVESGGGLVQPGGSLRLSCAASGYTFTEYTIHWVRQAPGKGLEWVANINPNNGGTTYNQKFEDRFTISRDNSKNTLYLQMNSLRAEDTAVYYCARGWNFDYWGQGTLVTVSSTRIQNPDPAVYQLRDSKSSDKSVCLFTDFDSQTNVSQSKDSDVYITDKCVLDMRSMDFKSNSAVAWSNKSDFACANAFNNSIIPEDTFFPSPESSCDVKLVEKSFETDTNLNFQNLSVIGFRILLLKVAGFNLLMTLRLWSSRAKRSGSGVKQTLNFDLLKLAGDVESNPGPSRGHMTEYKPTVRLATRDDVPRAVRTLAAAFADYPATRHTVDPDRHIERVTELQELFLTRVGLDIGKVWVADDGAAVAVWTTPESVEAGAVFAEIGPRMAELSGSRLAAQQQMEGLLAPHRPKEPAWFLATVGVSPDHQGKGLGSAVVLPGVEAAERAGVPAFLETSAPRNLPFYERLGFTVTADVEVPEGPRTWCMTRKPGA

System: Huh-7 cells
Test: JNG NFAT-GFP induction on co-culture with Huh-7

Row | Molecule | NFAT-GFP ASSAY: Huh-7
1 | B1 | negligible GFP induction
2 | B2 | negligible GFP induction
3 | B3 | negligible GFP induction; also recorded: negligible activity
4 | B4 | negligible GFP induction

System: KMH2 (PSMA-low) cells
Test: JNG NFAT-GFP induction on co-culture with KMH2

Row | Molecule | NFAT-GFP ASSAY: KMH2
5 | B1 | negligible GFP induction
6 | B2 | negligible GFP induction
7 | B3 | negligible GFP induction; also recorded: negligible activity
8 | B4 | negligible GFP induction
